Assay results: the DeepSol protein solubility set

assay: soluble on expression in E. coli; label from the status in PepcDB or PDB records

Sequence	soluble on expression in E. coli
MSLSLYQSVRAVANARGGETEWIDWRATAEAAKQARDQGALTLDDAERRAYATDVRDARSRLRTVGGLEFDIPQTIEVQNRHHWIDANIKTFERMLDPIDIATLIDDTNALNGPSGYATRMVNTGSMAAALAFLSGNVLGQYDPQLLSQTTDTIETNENNHELYFVHPNIVDVAAELDVEYPRFRRWIAFHEVAHAAEFGAAPWLRTHIEDRIESGLEALTGGRLDRSAFSDVDIVMTAVEGYAELLMDRAFDKEYADLRAKLDARRGGGGPVAQLFRRLLGLGVKERQYERGAQFFETIADQRGVKAAATVWEDPRYLPDESELDNPQYWIDRVNEGHHHHHH	not soluble
MGSDKIHHHHHHSGSFDPVTGAYTTDPITVTLTPKTVAVSTSVIANGERVYWATDKYPQGAGTFYWGSHTYTLESASDVTLAIPGINASGVCTATGSGTSLTINGCFSFSHNGTIYMGKSASCKSFFSLQSNLSSLTNFGDFVALTLGPGTNTIQLNKTGITDVNTTSFTYPSTTRSTSYRWTTYDINLQATLSAKTPPYTYLYCSVSQGLRVIMTTGGVVPNPFAMVPAASKPAYSPTISYSPALPIINTIAVNIRNITAIDILPRTVFNTGTISAWRTTYMEQPLTVTGQGNITRDFGASQNFNVLESWTCATTGQIDFRIMRDNTNANVCSGATYTHPVQTPQSLTAQWKAQSSTASGAWSARATVTFTLP	not soluble
MFPFSPADVPTLSYFDEYRGRRVQCHFCFQEVDGSTLLNHFKDDLRVFRYPSNSCYGIAATGDALRAHLRRLHFYSRPPAVRGFDIEQRRIRSQLKFDEHEHDPDWDMEDVQQENRSKEAPVEAVNSQDATSPAEKVSKIKEDISTSSSRVDPMYSDEDSEDETSDADSSDDENRESEEEEDEY	not soluble
MGSDKIHHHHHHMMKTDYVFCVDSDGCAMDTMTYKHKLFFGPLAADVFDVKDREPFLAEWNRVNLYSRERGINRFVGLVKGLDFAGVTGIDNLKNWVATTDSLSNASLERLIEETPSKDLELALEWSTQVNQAIKHYSGPVLAFIGVHKGLEKLSQLGKVYVVSSANKEAVEEEWTDQGLLDFVTELYCQDRGKKEDVIKILIEEGYCPDKIMMIGDSPGDLKAAELNGVHFYPILVGQEMQSWADLTETIADEFAHQAFTGEKETELIQAFWNNLDD	not soluble
MVQLDGGQFEMGTKATDGKDGESPVMQVKVLPFAIDKYPVTNRDFREFVRAKKYKTEAEAFGWSFVFEDFVSEELKKKVTQKLESAPWWLPVERAFWRQVSNLSVPLLLSGGSKGLFAAE	not soluble
MEKKRVVITGLGAVTPVGTDVETAWENIKKGVSGIGRLTRIDPELFPAKVAAEINDFEVEKYIDKKEARRMDRFTQYAVAAAKMAVADAKLEITEENGPRIGVWIGSGIGGMETYEEQFKIFTEKGPRRVSPFFVPMMIPDMAAGQVSIATGAKGINTCSVTACASGANSIGDAFKAIQRGDADAMITGGAEAPLTSMAFAGFSSAKALTFNEDPATACRPFDKNRSGFVMGEGSGILILEELEHALARGAHIYAEIAGYGATGDAFHITMPAPGGEGGVRAMRQALADAGLQPEDIDYINAHGTSTDANEKYETMAIKETFGEHAYKVAISSTKSMTGHLLGAAGAVEAIFSIKSITDGVIPPTINYETPDPECDLDYVPNNARHQEVNAVLSNSLGFGGHNAVLVFKSYK	not soluble
MELELDDDVFFADISKQLNLLITDEDEQNPISLSSSVSFQGLFRGNYQTSATPYMMYNEQINYNVIRESKGTGVFIPRSSQPRRKHNHHPHQKKQGRFIGSFIPKQQFPHHGHDNNLTTLNNNNQESITFHHASTNPRRTYRDAASLFT	not soluble
MGSDKIHHHHHHMSKIEELPPSDTDDHSYSSKPGDVFLAFVDAPVKETDDILVEDSFIGGEPKWLHPDSEPPAELLKCGACKSADNMKLLLQAFSPLDDEQMSAIQQRLGINNMSYINPQDDRVLYVFLCTECQRKGNSVRCIRGVKKNKNVDSLSEKMASTSLEKDFQINPFDLSNNSDSKCNAFSSNPFGGANANPFGADSINSNISQSKDEGKKKESATVSAKTARKLHDLQKDKEYDGNKCFKSCLLYVEEETFKNKKPAHLQLPKNLKIDKEALDLTGDEDLEKDPIKLDPRTEKLSKFLDDDTFQKFQEVVGYNPLQVLRYDLGGKPLLYAETKVDILSTVPRPGYNPSSQRIFEMQLMPKMIFDLEEVVSVDNGMEWGTILVFTDVENYMPEFDEHGVGYVEECVKVQWESRT	not soluble
MLFKARKWILSGASAQKSKSMAHTMLVENGFILPTAKGFYSLLPLGQRVIDKLCRILDVEFQNSGALKIAMPIVGTQQLWEKTGRWEAMGPEMIRFHDRQQNHMCLQPTAEEMCTELIATLSPLKKSQFPLIVYQIGEKFRDEMNPRFGLMRGRQFLMKDMYSFSTDAETSQQTYAQIRQIYDRIFGEILQLDEDVIKVEADSGVHGGHISHEYHLKSSLEEDFVNFCENCKNHNKFEGPGPAKCEKCAENSSKTVQKIPSVEIAHTFHLGTKYSEALGAKFQGKPLDMCCFGIGVTRLLPAAIDLLSVSDKALRLPRAIAPFDAVIIVKKSLMSNVIVEMASSSASRYLKGGILLDDRVEMSAGKRIHDANRLGIPFILVIANETERSLATQKPVIEVFTTHAKSAEPMSQGSMSLDRFVTFVQSTLYGGGGAHDSGHLAHNQVLDQLGSHQH	not soluble
MEWKTVVKPHTERINVKRSEFYATIFPVKDEKDFREKLKEVSKRDATHNCWAYRIFSPNGILEHSSDDGEPSGTAGRPILGALKKYDLMNTAIVVTRYFGGVKLGVRGLIEAYSSAAEMAVKGAELRKLRLMKEFEVEVDYQELNNVFRVVEMMGLELVEMDYTERGAKILLRGLEVPENLVIKTIRDVLI	soluble
AHHHHHHGSKLIEMLKEITQVPGISGYEERVREKIIEWIKDYADYKVDEIGNLIVELGEGEVKAVFMAHMDEIGLLITGITQDGKLRFRKVGGIDDRLLYGRHVDVITENGKLDGVIGALPPHLNVKGVKDVVPWYQLTIDIGAESKEEALSLGVKPLDYAVFKKHFSVLNNKIVSTRSLDDRFGVVALVQAIRNLVDHELSGKFIFAFTVQEEIGLKGAKFLAEKYSPEYAFAIDSFACCSELTGDVRLGGGAVIRAVDNSAIYSRDLARKVWEIAEKNNIPIQIGVTGGGTDASVFQHKSKVLALSVPMKYLHSEVEMLNVKDLEALIALIEAITFEI	soluble
MGSDKIHHHHHHMFDWENVRHFLAVARIGTLSGAARSLKVDHATVSRRLSALEDEIKTRLIERLPRACKLTLIGQRVFELAQGMEEDAYAIERFVDASRSPLSGKVSLSAPPVLVAHFLAKHLADFRRVHPGVQLSVSGEARQISLSRREADVALRLVRPEEGTSVVRKLGRMSFDLYASRDYPHLHNPSAWEFISYDAGFTDMPQQKWLMSVARGRPIACEISDINGHLAATQAGAGVAGLPDFLADTDAKLQRVAYDGEPFSRDIWLAVHRDLRRSPHVRAVMDFLLKIVKENPAFTISG	not soluble
MGSDKIHHHHHHMQVGDRIVVRQEEFDTIGHVLSVDPLIVRPHARGGLPSNAEPVRIDNPLMIKRLSPRTVRNADIRAIEVATAKAFPGIEHTWCGQWLLRAGDGVTERSNSAAPLGPQALFTPVPYEEIKEFYRRHNLPALILVPERIAPAIPDDGPEIIVMTHPLDNVSEIDDVHAEFLDQPDDDWLELYHFRGKALPRHALELLRTTIDGRMCFGRLKRDGKTVAITRGTITDGYLGYSAVEVAPEYRRQGLATELGAAMLAWGKAHGAHTAYLQVIESNAAGIGLYHKLGFVEHHRHKYVRVS	not soluble
MGSDKIHHHHHHMSIVGNVENLINGVGELWNKYVKHEFILKMRDGSLPLDIFRYYLIQDGKYVEDMLRALLIASSKGPIDKVTKILNLVFSSRDKGLETHGKLYSKLDISRDVIVKTGYNLINYAYTRHLYYYANLDWNKFLVAWTPCMFGYSIVGDYVIDSPNEVYKTWASFYASTEYKKRIEAILYALDEVSITEDLLNIFINSVRFEIGFWDASLRKDPTVY	not soluble
DLDLEMLAPYIPMDDDFQLR	soluble
MAAPPSPGRTADQADQVCTFLFKKPGRKGAAGLRKRPACDPEHGESSSSGDEGDTVAQPPRVAPRPRGLHSWQKAAHGDRRGEEAAPESLDVVYRSTRSAKPVGPEDMGATADFEQDTEKEHHTPTILKCSQRVQEALRGREHDHIYRGIHSYLRYLKPKDTSMGNSSSGMARKGPIRAPGHLRATVRWDYQPDICKDYKETGFCGFGDSCKFLHDRSDYKLGWEIERELEEGRYCICEDENHEVGSEEEEIPFRCFICRQAFQNPVVTKCRHYFCESCALEHFRATPRCYICDQPTGGIFNPAKELMAKLQKLQAAEGKKR	soluble
